Test results taken from PMC5508133.

Molecular target: PfEMP1B (GFP-tagged minimal PfEMP1 construct) (P. falciparum)
Test: co-IP; GFP-Trap on parasite lysates crosslinked with increasing concentrations of DSP; 1% Triton X-100, 150 mM NaCl, 50 mM Tris-HCl pH 7.4; western blot of eluates

B1: ring-exported protein-1 (REX1) (natural protein)
chain: MADYSSNEEETPKEEKKISKLEDMQSPFDYKRFFRKYTIFAPFILVYFTLMFFVNSTVQNGTMLLNSIKENANSKLPALLWNKIIGKGNDNEVNFEDKKMIEGNKSGNGEEHNKHKRRQVDNQEDDYDVDEYGNPKSGAPYKSEEEHAEQQNYYGEHHGDYEDKNEYHGKSNIENNKDFPEQGQKDEEKEKEAKKKAEEFEKRKQLHEEEKRKARETQQALHKKLQEQLQRLKEQEKKKVEHQKLIHKIKTQGDVDPAVQKVLNKYNQKEKDEEQQILKIRDLQVQLRHIQQRIQSLKSTNNGQPKTKDEYLQLKDLQKEYYDKEQDEQNMIEHLEHLQGEMQYLYEELQIVYDENQAKTAQAKDEQHELKPQAEKDASKLTTTYDQTKEVKPQAEKDASKLTTTYDQTKEVKPQAEKDASKLTTTYDQTKEVKPQAEKDALAKTENQNGELLPQAEKDASKLTTTYDQTKEVKPQAEKDALAKTENQNGELLPQAEKDASKLTTTYDQTKEVKPQAEKDALAKTENQNGELLPQAEKDASKLTTTYDQTKEVKPQAEKDALAKTENQSGELLTQAEKDALAKKESEAPKGSSTSDKNTTENQLNAEAQSEVKPQWQKDYWKSKNESQTETNNTWKKDSWKKKTEEQQNAEAQQEVKSPYEKYSYNKETKPQNDKYTLNKEVKPQNEKYTYNQKVKAENTESEKSLLESSVFN
fold increase of pull-down in the presence of DSP: > 10 fold
